{"source": "IntAct's records for PubMed 28380382", "parents": {"B1": {"name": "Complex III assembly factor LYRM7 (Homo sapiens), Q5U5X0 (parent)", "chain": "MGRAVKVLQLFKTLHRTRQQVFKNDARALEAARIKINEEFKNNKSETSSKKIEELMKIGSDVELLLRTSVIQGIHTDHNTLKLVPRKDLLVENVPYCDAPTQKQ", "partner": "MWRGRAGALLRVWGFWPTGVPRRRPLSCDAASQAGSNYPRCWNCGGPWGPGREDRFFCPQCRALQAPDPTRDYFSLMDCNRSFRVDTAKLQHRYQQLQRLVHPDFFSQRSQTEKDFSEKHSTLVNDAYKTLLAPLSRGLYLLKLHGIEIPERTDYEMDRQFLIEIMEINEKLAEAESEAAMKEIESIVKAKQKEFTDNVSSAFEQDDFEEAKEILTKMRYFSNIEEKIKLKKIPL"}}, "data": [{"variants_of": "B1", "settings": "with hsc20_human HSCB", "values": [{"variant": "D25N", "effect of a mutation on the interaction": "with no effect"}, {"variant": "L10A;F11A;K12A", "effect of a mutation on the interaction": "disrupting interaction strength"}, {"variant": "V21A;F22A;K23A", "effect of a mutation on the interaction": "with no effect"}]}]}
